Data as given in patent US6780986 (UNIVERSITY OF VERMONT AND STATE AGRICULTURAL COLLEGE, dated 2004).

Assays:
[1] = target: the molecule itself; test: DNase I footprinting on the DHFR-E probe (self-association on DNA, inferred)
Description: Materials and Methods: Probe DHFR-E-top was generated by digesting pUC/E with Bam HI, end-labeling by Klenow fill-in in the presence of [α-^32P]-dATP, and digesting with Bgl II. Probe DHFR-E-bottom was generated by digesting pUC/E with Bgl II, end-labeling by Klenow fill-in in the presence of [α-^32P]-dATP, and digesting with Bam HI. Footprinting probes were purified by gel electrophoresis and Geneclean (Bio 101), and resuspended in distilled water at a specific activity of 50,000 dpm/ul. Binding reactions (50 ul) that contained 50,000 dpm of labeled probe were assembled as for gel mobility shift assays. After incubation at 37° C. for 20 min and on ice for 15 min, one volume of a 5 mM CaCl_2, 10 mM MgCl2 solution was added for one minute at room temperature, followed by the addition of 0.02 units of DNase I for 1 min. Footprinting reactions were stopped with the addition of 90 ul prewarmed stop buffer (200 mM NaCl, 30 mM EDTA, 1% SDS), extracted with phenol, ethanol precipitated, and resuspended in sequencing dye buffer. Samples were resolved by electrophoresis at 65 W for 1.5 to 3.0 hours on denaturing 8% polyacrylamide gels. The gel was dried, exposed to Kodak XAR film at –80° C., and signals were detected by autoradiography.
Fusion proteins containing hand Z2 induced multiple hypersensitive sites on the top strand of DHFR-E, including the prominent site at position 3483.

[2] = target: the molecule itself; test: gel shift multimers on DNA probe (self-association on DNA)

B1: GST-Z23 (GST fused to hands Z2 and Z3 of RIP60) (other)
chain: PRPGGDAVDRPFQCACCGKRFRHKPNLIAHRRVHTGERPHQCPECGKRFTNKPYLTSHRRIHTGEKPYPCKECGRRFRHKPNLLSHSKIHKRSEGSAQAAPGPGSPQLPAGPQESAAEPTPAVPLKPAQEPPPGAPPEHPQDPIEAPPSLYSCDDCGRSFRLERFLRAHQRHDTGERPFTCAECGKNFGKKTHLVAHSPVHSGERPFACEECGRRFSQGSHLAAHRPDHAPDRPFVCPDCGKAFRHKPYLARHRRIHTGEKPYVCPDCGKAFSQKSNLVSHRRIHTGERPYACPDCDRSFSQKSNLITHRKSHIRDGAFCCAICGQTFDDEERLLAHQKKHDV
notes: The start of the range is derived from the domain limits; nucleotide 682 would give residue 228; also called pCH61 product; not shown: glutathione-S-transferase (GST) purification tag from vector pGEX-2T
B1: binds [1].

B2: GST-Z2 (GST fused to the Z2 domain of RIP60, zinc fingers 6-8 plus 37 amino acids of the proline rich region) (other)
chain: GGDAVDRPFQCACCGKRFRHKPNLIAHRRVHTGERPHQCPECGKRFTNKPYLTSHRRIHTGEKPYPCKECGRRFRHKPNLLSHSKIHKRSEGSAQAAPGPGSPQLPAGPQESAAEPTPAVPLKPAQ
notes: Expressed in E. coli BL21 and purified on glutathione beads; also called GST-Z2(P12); GST-Z2-P12; not shown: glutathione-S-transferase (GST) purification tag, 26 kD, at the amino terminus; from vector pGEX-2T
B2: binds [2].
